The source of these data is US20110034673A1.

The assay addresses human HB-EGF on cells (membrane type and cell membrane-bound HB-EGF of human cancer cell lines) (human) (UniProt Q99075). The experiment in a line: cell-based or functional assay.

Sequence of human HB-EGF on cells (membrane type and cell membrane-bound HB-EGF of human cancer cell lines) (human) (Q99075 63-148 limits assumed): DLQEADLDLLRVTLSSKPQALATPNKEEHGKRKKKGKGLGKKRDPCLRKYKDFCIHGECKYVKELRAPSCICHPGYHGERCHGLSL

B1: anti-HB-EGF humanized antibody HV0LV0 (antibody, V domains shown)
VH: QVQLVQSGAEVKKPGASVKVSCKASGYTFTTYGITWVRQAPGQGLEWMGEIFPGSGNTYYNEKFKGRVTITADKSTSTAYMELSSLRSEDTAVYYCARESFSDGYYGYFDYWGQGTLVTVSS
VL: DIVMTQSPDSLAVSLGERATINCKSSQSLLYSTNQKNSLAWYQQKPGQPPKLLIYWASTRESGVPDRFSGSGSGTDFTLTISSLQAEDVAVYYCQQYYRYPLTFGQGTKLEIK
Consider B1, for which the ADCC activity relative to KM3966 (fold of KM3966) was 0.1.
